Test results taken from US20040014149A1 (RIGEL PHARMACEUTICALS, published 2004).
Ends that are not written are not given here.

T1: human thioredoxin-like 32 kDa protein (hTXNL) (human, UniProt O43396 1-289, limits assumed)
T1 sequence: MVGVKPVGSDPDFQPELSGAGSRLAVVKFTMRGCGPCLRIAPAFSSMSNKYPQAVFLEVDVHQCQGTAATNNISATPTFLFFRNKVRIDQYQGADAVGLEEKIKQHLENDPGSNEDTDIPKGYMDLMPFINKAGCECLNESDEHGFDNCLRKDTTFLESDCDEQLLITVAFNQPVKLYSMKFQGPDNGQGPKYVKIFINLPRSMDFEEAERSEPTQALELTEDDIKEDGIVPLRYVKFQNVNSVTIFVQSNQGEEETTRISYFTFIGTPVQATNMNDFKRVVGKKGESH


Columns and labels:
[1] = target: T1, human thioredoxin-like 32 kDa protein …; experiment: cell-based or functional assay
[2] = target: T1, human thioredoxin-like 32 kDa protein …; experiment: cell-based or functional assay; remark: listed apart in the source

Row | Binder | Reporter Ratio (A5T4 germline epsilon promoter GFP reporter line) [1] | endogenous epsilon inhibition ratio (TAQMAN quantitative PCR) [2] | reporter ratio (original library clone, +IL-4/+Dox to +IL-4/-Dox GFP) [2]
1 | PERCYMRMPPQSLADAQIYS (peptide, not shown: large carriers, also: expressed as BFP-linker-peptide fusion, construct not described) [peptide DR15wt] | 1.69 | 1.56 | 1.43
2 | AARCYMRMPPQSLADAQIYS (peptide, not shown: large carriers) [peptide DR15PE] | 2.22 |  | 
3 | PERCYMRMPPQSLADAAAYS (peptide, not shown: large carriers) [peptide DR15QI] | 1.35 |  | 
4 | PERCAARMPPQSLADAQIYS (peptide, not shown: large carriers) [peptide DR15YM] | 1.22 |  | 
